Experiment [1] deals with SARS-CoV-2 RBD (residues 319–541), Wuhan-Hu-1 (SARS-CoV-2) (UniProt P0DTC2). Briefly: BLI. (In general: Biolayer interferometry detects binding as a change in optical thickness at a sensor tip.)
The target of experiment [2] is ACE2-COMP (human | rat) (UniProt Q9BYF1). Nature of the experiment: negative stain electron microscopy.

The results in this text go back to publication PMC11862925.

For the substance “ACE2-COMP (from UniProt Q9BYF1 19-615; P35444 29-73)”, in experiment [1], the Kd is under 0.025 nM and the percent of bound ACE2 still attached after more than 8 h of dissociation was found to be 90%. In addition, the stoichiometry N in experiment [2] turned out to be 5.

The Kd is the equilibrium constant for the complex coming apart. For orientation: stoichiometry N means the number of molecules, sites or subunits per partner or assembly.
